Measured values published in article PMC11846989 (Communications Biology, 2025).

Tests used:
SEC-MALS = target: the molecule itself; assay: SEC-MALS
SEC = target: the molecule itself; assay: SEC

Protein | stoichiometry N (SEC-MALS) | stoichiometry N (SEC)
full-length human GBP2 (guanylate-binding protein 2), wild type (natural protein, UniProt P32456 1-591, looked up) MAPEINLPGPMSLIDNTKGQLVVNPEALKILSAITQPVVVVAIVGLYRTGKSYLMNKLAGKKNGFSLGSTVKSHTKGIWMWCVPHPKKPEHTLVLLDTEGLGDIEKGDNENDSWIFALAILLSSTFVYNSMGTINQQAMDQLHYVTELTDRIKANSSPGNNSVDDSADFVSFFPAFVWTLRDFTLELEVDGEPITADDYLELSLKLRKGTDKKSKSFNDPRLCIRKFFPKRKCFVFDWPAPKKYLAHLEQLKEEELNPDFIEQVAEFCSYILSHSNVKTLSGGIPVNGPRLESLVLTYVNAISSGDLPCMENAVLALAQIENSAAVEKAIAHYEQQMGQKVQLPTETLQELLDLHRDSEREAIEVFMKNSFKDVDQMFQRKLGAQLEARRDDFCKQNSKASSDCCMALLQDIFGPLEEDVKQGTFSKPGGYRLFTQKLQELKNKYYQVPRKGIQAKEVLKKYLESKEDVADALLQTDQSLSEKEKAIEVERIKAESAEAAKKMLEEIQKKNEEMMEQKEKSYQEHVKQLTEKMERDRAQLMAEQEKTLALKLQEQERLLKEGFENESKRLQKDIWDIQMRSKSLEPICNIL | 2 | 
human GBP2 G domain (1-309), wild type (domain or fragment, UniProt P32456 1-309, looked up) MAPEINLPGPMSLIDNTKGQLVVNPEALKILSAITQPVVVVAIVGLYRTGKSYLMNKLAGKKNGFSLGSTVKSHTKGIWMWCVPHPKKPEHTLVLLDTEGLGDIEKGDNENDSWIFALAILLSSTFVYNSMGTINQQAMDQLHYVTELTDRIKANSSPGNNSVDDSADFVSFFPAFVWTLRDFTLELEVDGEPITADDYLELSLKLRKGTDKKSKSFNDPRLCIRKFFPKRKCFVFDWPAPKKYLAHLEQLKEEELNPDFIEQVAEFCSYILSHSNVKTLSGGIPVNGPRLESLVLTYVNAISSGDLPC |  | 2
